Patent publication CN116178551A (BEIJING DONGFANG BIOTECH CO LTD, dated 2023)

Key:
huFc-NKG2A/CD94 = target: T1, huFc-NKG2A/CD94 (UniProt P26715 94-233; Q13241 32-179, limits assumed); assay: phage supernatant ELISA, huFc-NKG2A/CD94 against huFc-NKG2C/CD94 and huFc-NKG2E/CD94 (selection criterion met by MA-1)
T1 construct: The construct is named only, and its architecture is not described; The Fc is placed N-terminal following the printed name; not shown: human Fc (huFc)

huFc-NKG2C/CD94 = target: T2, huFc-NKG2C/CD94 (UniProt P26717 94-231; Q13241 32-179, limits assumed); assay: ELISA, serial dilution of MA-1 on huFc-NKG2C/CD94, anti-mouse Ig-HRP
T2 construct: The construct is named only, and its architecture is not described; not shown: human Fc (huFc)
T2 sequence (P26717 94-231 limits assumed, chain 1 of 2): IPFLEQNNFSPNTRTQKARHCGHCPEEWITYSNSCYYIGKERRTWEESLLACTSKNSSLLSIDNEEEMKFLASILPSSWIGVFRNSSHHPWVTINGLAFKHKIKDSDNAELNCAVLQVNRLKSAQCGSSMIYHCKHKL
T2 sequence (Q13241 32-179 limits assumed, chain 2 of 2): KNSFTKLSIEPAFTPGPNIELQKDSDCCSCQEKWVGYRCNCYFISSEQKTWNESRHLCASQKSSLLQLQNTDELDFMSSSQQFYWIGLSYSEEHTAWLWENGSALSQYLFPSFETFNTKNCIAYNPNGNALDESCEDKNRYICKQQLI

huFc-NKG2E/CD94 = target: T3, huFc-NKG2E/CD94 (UniProt Q07444 94-240; Q13241 32-179, limits assumed); assay: ELISA, serial dilution of MA-1 on huFc-NKG2E/CD94, anti-mouse Ig-HRP
T3 construct: The construct is named only, and its architecture is not described; not shown: human Fc (huFc)
T3 sequence (Q07444 94-240 limits assumed, chain 1 of 2): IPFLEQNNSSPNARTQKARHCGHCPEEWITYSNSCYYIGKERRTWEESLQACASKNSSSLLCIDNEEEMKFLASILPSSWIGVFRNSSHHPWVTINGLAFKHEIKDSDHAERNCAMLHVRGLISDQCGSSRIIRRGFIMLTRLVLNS
T3 sequence (Q13241 32-179 limits assumed, chain 2 of 2): as the sequence (Q13241 32-179 limits assumed, chain 2 of 2) above

T1 sequence (P26715 94-233 limits assumed, chain 1 of 2): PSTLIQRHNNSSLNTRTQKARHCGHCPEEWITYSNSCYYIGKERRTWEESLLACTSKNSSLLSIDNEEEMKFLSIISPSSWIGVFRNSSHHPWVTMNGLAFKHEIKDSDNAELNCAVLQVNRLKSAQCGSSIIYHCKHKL
T1 sequence (Q13241 32-179 limits assumed, chain 2 of 2): as the sequence (Q13241 32-179 limits assumed, chain 2 of 2) above

Binder	OD450nm读值 with NKG2A relative to NKG2C/E (huFc-NKG2A/CD94)	binding result (huFc-NKG2C/CD94)	binding result (huFc-NKG2E/CD94)
噬菌体单克隆抗体MA-1 (phage-displayed single-chain antibody MA-1) (scFv) EVKLEESGGGLVKPGGSLKLSCAASGFAFSDYDMSWVRQTPEKRLEWVATISSGGSYTYYPDSVKGRFTISRDNARNTLYLQMSSLRSEDTALYYCTSPRQVGLRKAFDYWGQGTTLTVSSDIVVTQSPALMSASPGEKVTMTCSASSSVSYMYWYQQKPRSSPKSWIYLTSNLASGVPARFSGSGSGTSYSLTISSMEAEDAATYYCQQWSSNPFTFGSGTKLEIKRAD	> 3 fold	–	–
MA-1鼠源抗体 (murine full antibody MA-1, mouse IgG2a / mouse Ck) (antibody, V domains shown, also called 抗NKG2A单克隆抗体MA-1; 鼠源全抗分子) VH: EVKLEESGGGLVKPGGSLKLSCAASGFAFSDYDMSWVRQTPEKRLEWVATISSGGSYTYYPDSVKGRFTISRDNARNTLYLQMSSLRSEDTALYYCTSPRQVGLRKAFDYWGQGTTLTVSS VL: DIVVTQSPALMSASPGEKVTMTCSASSSVSYMYWYQQKPRSSPKSWIYLTSNLASGVPARFSGSGSGTSYSLTISSMEAEDAATYYCQQWSSNPFTFGSGTKLEIKR	–	no binding	no binding
